Experiments:
[1] = molecular target: USP7 (endogenous in SLK.iBAC-GFP cells) (human (endogenous in SLK.iBAC-GFP), UniProt Q93009 1-1102); assay: cell-based or functional assay
[2] = molecular target: T1, Recombinant USP7-TRAF protein (human, UniProt Q93009 1-208); assay: SPR; details: both partners purified
T1 construct: also called USP7-TRAF domain

GST-USP7-murine TRAF WT = molecular target: T2, GST-USP7-murine TRAF WT (murine, UniProt Q6A4J8 1-208); assay: pull-down; details: both partners purified
T2 construct: also called GST-mUSP7-TRAF WT; murine USP7-TRAF

[3] = molecular target: T1, Recombinant USP7-TRAF protein; assay: SPR; Biacore T200; USP7-TRAF immobilised on a CM5 chip by amine coupling to about 8000 RU; gradient concentrations of peptides injected at 30 μL/min; running buffer 0.05% (v/v) Tween 20 in PBS; details: both partners purified

T1 sequence (Q93009 1-208): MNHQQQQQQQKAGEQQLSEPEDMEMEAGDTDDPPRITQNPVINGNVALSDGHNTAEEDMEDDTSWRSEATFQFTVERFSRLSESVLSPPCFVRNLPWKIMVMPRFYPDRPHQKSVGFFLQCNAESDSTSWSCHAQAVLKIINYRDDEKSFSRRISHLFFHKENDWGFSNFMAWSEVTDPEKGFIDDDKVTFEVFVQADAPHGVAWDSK
Chain of USP7 (endogenous in SLK.iBAC-GFP cells) (Q93009 whole entry): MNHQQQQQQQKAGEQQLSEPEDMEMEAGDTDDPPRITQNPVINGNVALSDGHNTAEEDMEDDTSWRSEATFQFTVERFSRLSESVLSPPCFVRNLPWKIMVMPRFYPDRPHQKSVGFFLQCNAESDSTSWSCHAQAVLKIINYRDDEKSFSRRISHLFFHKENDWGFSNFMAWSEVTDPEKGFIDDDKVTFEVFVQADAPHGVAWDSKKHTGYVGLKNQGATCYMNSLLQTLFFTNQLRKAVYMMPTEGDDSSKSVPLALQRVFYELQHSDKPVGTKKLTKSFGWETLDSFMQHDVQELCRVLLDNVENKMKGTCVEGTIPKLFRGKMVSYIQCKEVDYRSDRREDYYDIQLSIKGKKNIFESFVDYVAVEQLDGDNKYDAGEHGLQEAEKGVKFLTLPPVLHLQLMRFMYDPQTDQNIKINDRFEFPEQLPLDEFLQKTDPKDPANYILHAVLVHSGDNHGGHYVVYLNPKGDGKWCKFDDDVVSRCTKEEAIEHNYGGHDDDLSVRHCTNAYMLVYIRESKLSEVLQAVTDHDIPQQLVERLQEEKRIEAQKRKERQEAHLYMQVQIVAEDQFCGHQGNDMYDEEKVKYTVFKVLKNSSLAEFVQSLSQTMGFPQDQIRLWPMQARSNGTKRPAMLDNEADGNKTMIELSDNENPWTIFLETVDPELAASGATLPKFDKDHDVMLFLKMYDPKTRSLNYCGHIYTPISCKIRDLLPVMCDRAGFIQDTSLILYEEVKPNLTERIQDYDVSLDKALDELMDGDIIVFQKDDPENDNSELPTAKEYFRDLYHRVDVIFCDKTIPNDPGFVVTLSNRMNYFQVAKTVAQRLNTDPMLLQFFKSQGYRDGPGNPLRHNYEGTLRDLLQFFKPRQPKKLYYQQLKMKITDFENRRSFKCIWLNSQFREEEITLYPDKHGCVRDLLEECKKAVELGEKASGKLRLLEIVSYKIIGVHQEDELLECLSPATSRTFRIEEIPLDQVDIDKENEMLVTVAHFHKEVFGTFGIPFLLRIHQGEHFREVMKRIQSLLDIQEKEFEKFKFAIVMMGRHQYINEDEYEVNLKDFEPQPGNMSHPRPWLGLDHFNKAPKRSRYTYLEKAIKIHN
T2 sequence (Q6A4J8 1-208): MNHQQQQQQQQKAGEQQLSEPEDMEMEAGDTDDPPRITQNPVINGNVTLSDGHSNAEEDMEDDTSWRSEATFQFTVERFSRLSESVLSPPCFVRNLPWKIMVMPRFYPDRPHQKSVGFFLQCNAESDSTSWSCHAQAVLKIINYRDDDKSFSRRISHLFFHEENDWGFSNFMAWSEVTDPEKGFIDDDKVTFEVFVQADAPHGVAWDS

Binder: Ac-YGRKKRRQRRRGGVNQSASQSSN-NH2 [p8 fused to an N-terminal Tat(47-57) peptide via a GG linker]
- IC50 of inhibition of KSHV lytic reactivation in SLK.iBAC-GFP cells (blocks OTUD4-USP7) [1]: 52.6 µM

B1: p8 (peptide)
peptide: Ac-VNQSASQSSN-NH2
notes: also called peptide p8; human-derived p8
- Kd [2]: 3.16 µM

Binder: Ac-YGRKKRRQRRRGGVSQSPSQNSN-NH2 (also called murine-derived p8) [p8-m]
- binding result (GST-USP7-murine TRAF WT): binds

Binder: Ac-EVADEDNSEI-NH2 (also called peptide p2) [p2]
- Kd [3]: 9.02 µM
